Assay results taken from the supplement of paper PMC9170038.

System: MS2 coat protein
Assay: apparent KD of MS2 coat protein; designed switch direction (-1 OFF switch, 1 ON switch): -1; higher = weaker reporter binding
Procedure, shortened: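 Apparent KD, taken as the median over clusters for each design, was obtained by curve-fitting normalised cluster fluorescence. Designed RNA switches had been transcribed on Illumina chips by stalled E. coli RNA polymerase and titrated with SNAP-549-labelled MS2 coat protein, doubling from 0.7 or 1.5 nM to 3 µM.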

[1] = Eterna round: R95, input ligand: microRNA oligo, concentration not stated
[2] = input ligand: microRNA oligo, concentration not stated
[3] = Eterna round: R95, input ligand: FMN 200 uM
[4] = Eterna round: R95, input ligand: none

Sequence: CGUGCGUAUGUGAGGAUAUGCUGGUCCUUGGAUCGGCAGAAGGCACAUGAGGAUCACCCAUGUGGUGUCGUUCC [salish99_Bmod_ex4_094] (puzzle: Brourd's mod of Exclusion 4)
- apparent KD of MS2 coat protein [1]: 0.039 µM

Sequence: GGUACUCAAAGAGUACCAAUACGAACAUGAGGAUCACCCAUGUAGGAUAUGCUACUCAAAGAGUAGCAGAAGGACGUGUACCCU [Far Half Aptamer v2] (Eterna round: R96, puzzle: Exclusion NG 3)
- apparent KD of MS2 coat protein (input ligand: FMN 200 uM): 0.0599 µM
- apparent KD of MS2 coat protein [2]: 0.0219 µM
- apparent KD of MS2 coat protein (input ligand: none): 0.0248 µM

Sequence: UUAAAUCAUGUAGGAUAUGCGUGGCGAAGCUAUGCAGAAGGACAUGAGGAUCACCCAUGUUCUAGCGUCUGCGAACAGAUGCAA [Mat - Exclusion NG 1 - Mod of JL - D1] (Eterna round: R96, puzzle: Exclusion NG 1)
- apparent KD of MS2 coat protein (input ligand: FMN 200 uM): 0.12 µM
- apparent KD of MS2 coat protein [2]: 0.0122 µM
- apparent KD of MS2 coat protein (input ligand: none): 0.0169 µM

Sequence: AAAUUGUGAGGAUAUUCGAUGAACUCGGAGACGAGUUUAUCGGAGAAGGCACAUGAGGAUCACCCAUGUUCCUU [Mat - Exclusion 4 - JL Mod - D23] (Eterna round: R97, puzzle: Exclusion 4)
- apparent KD of MS2 coat protein (input ligand: FMN 200 uM): 0.102 µM
- apparent KD of MS2 coat protein (input ligand: none): 0.0185 µM

Sequence: AGCCUACAUGAGGAUCACCCAUGUCAGGAUAUCUCGCGACGUGUCGGGAACACGUUGCAGAGAAGGGACUCGGG [Labezadi] (puzzle: Exclusion 1)
- apparent KD of MS2 coat protein [1]: 0.0518 µM

Sequence: UAUUAAUGCAAGGAUAUGCUUUUAAUUUUUUUUGCAGAAGGUGCAACAUGAGGAUCACCCAUGUUUCAGGGUAU [JR_E6_Sub031] (puzzle: Exclusion 6)
- apparent KD of MS2 coat protein [1]: 0.0351 µM

Sequence: UUAUUAUAUGUAGGAUAUGCAUAUUGUUAUUAUGCAGAAGGACAUGAGGAUCACCCAUGUAUAUUAUUAUUAUAUAUUAUAUAU [Title] (Eterna round: R96, puzzle: Exclusion NG 1)
- apparent KD of MS2 coat protein [2]: 0.0233 µM

Sequence: UACAUGAGGAUCACCCAUGUUUUGUCGUGUAUGGUAUUUAUCUAGGAUAUCAAUCAAUUUAUUUAUGAGAAGGAGAAUAUUAAU [JMF's solution 49] (Eterna round: R96, puzzle: Exclusion NG 3)
- apparent KD of MS2 coat protein (input ligand: FMN 200 uM): 0.0378 µM
- apparent KD of MS2 coat protein [2]: 0.026 µM
- apparent KD of MS2 coat protein (input ligand: none): 0.0338 µM

Sequence: ACCAUGUCUGAGGAUAUGCAAGCGUACCACGCGGUAGAAGGCAGCACAUGAGGAUCACCCAUGUGGGUAUGCUA [Inanenqu] (puzzle: Exclusion 6)
- apparent KD of MS2 coat protein [3]: 0.0153 µM
- apparent KD of MS2 coat protein [1]: 0.00992 µM
- apparent KD of MS2 coat protein [4]: 0.0148 µM

Sequence: GAGACACAUGAGGAUCACCCAUGUGAGGAUAUGCGAAGGACCAAAUUAAGAAUUAAAGGCAGAAGGCACAUAAA [Exclusion 1 V4] (puzzle: Exclusion 1)
- apparent KD of MS2 coat protein [3]: 0.0368 µM
- apparent KD of MS2 coat protein [1]: 0.0355 µM
- apparent KD of MS2 coat protein [4]: 0.0293 µM

Sequence: UGAUCUUGAGUCAGGAUAUGCUGGUAUUUUUACCAGCAGAAGGGACAUGAGGAUCACCCAUGUUCUCACUUUUU [Magic-13] (puzzle: Brourd's mod of Exclusion 4)
- apparent KD of MS2 coat protein [1]: 0.0105 µM

Sequence: GGUACUCAAAGAGUACCAAUACGAACAUGAGGAUCACCCAUGUAGGAUAUGCUACUCAAAGAGUAGCAGAAGGACGUGUAUCUU [Far Half Aptamer v3] (Eterna round: R96, puzzle: Exclusion NG 3)
- apparent KD of MS2 coat protein (input ligand: FMN 200 uM): 0.0605 µM
- apparent KD of MS2 coat protein [2]: 0.0189 µM
- apparent KD of MS2 coat protein (input ligand: none): 0.0308 µM

Sequence: AAAGGAUGCCUAGGAUAUUGACGAAGAAAGGAUUAAGAAGGAGGAAAUAUAUGAGGGAUCCACAUGAGGAUCACCCAUGUACAC [Beveinveor] (Eterna round: R96, puzzle: Exclusion NG 1)
- apparent KD of MS2 coat protein (input ligand: FMN 200 uM): 0.538 µM
- apparent KD of MS2 coat protein [2]: 0.458 µM
- apparent KD of MS2 coat protein (input ligand: none): 0.27 µM

Sequence: AUAAUUAGUUCAGGAUAUCAGCACGUUUAGUGCUGAGAAGGGAACAUGAGGAUCACCCAUGUGAUCAAUAUUAUAAUUUUAAUU [ENG1/12-B2] (Eterna round: R96, puzzle: Exclusion NG 1)
- apparent KD of MS2 coat protein (input ligand: FMN 200 uM): 0.21 µM
- apparent KD of MS2 coat protein [2]: 0.754 µM
- apparent KD of MS2 coat protein (input ligand: none): 1.1 µM

Sequence: AAGAAGAAGUAAGGAUAUGAAGAUCUGGUGGUGACAUGAGGAUCACCCAUGUGAAAACGAUAAGAUCAGAAGGUAUAAGAAGAA [AK ExNG2-3.2] (Eterna round: R96, puzzle: Exclusion NG 2)
- apparent KD of MS2 coat protein (input ligand: FMN 200 uM): 0.0868 µM
- apparent KD of MS2 coat protein [2]: 0.0484 µM
- apparent KD of MS2 coat protein (input ligand: none): 0.0858 µM

Sequence: GACAUGAGGAUCACCCAUGUAACCUCAUGUAGGAAGGAGAGUAAGGAUAUACAUGAAGGAAUGAAGUAGAAGGUGCAUAGAGAG [Default title] (Eterna round: R96, puzzle: Exclusion NG 3)
- apparent KD of MS2 coat protein (input ligand: FMN 200 uM): 0.605 µM
- apparent KD of MS2 coat protein [2]: 0.377 µM
- apparent KD of MS2 coat protein (input ligand: none): 0.586 µM

Sequence: AACAAGCUUUAAAGAUCCCACAUGAGGAUCACCCAUGUGCUCGUCUUGUAACGUACUGUGACGAAAGUCACGGUACG [JL TOV1 3.28] (Eterna round: R97, puzzle: Sensor, turn-off variant 1)
- apparent KD of MS2 coat protein (input ligand: FMN 200 uM): 0.0246 µM
- apparent KD of MS2 coat protein (input ligand: none): 0.0239 µM

Sequence: ACGAUGAUCGAAAAGUGUAAAUCGACAUGAGGAUCACCCAUGUAGGAUAUGGCUACGAAAAGUAGUCAGAAGGGCAUGUCAUCA [3 Av 11 mod - 1] (Eterna round: R96, puzzle: Exclusion NG 3)
- apparent KD of MS2 coat protein (input ligand: FMN 200 uM): 0.0369 µM
- apparent KD of MS2 coat protein [2]: 0.0257 µM
- apparent KD of MS2 coat protein (input ligand: none): 0.0311 µM

Sequence: GCCAAUGACUGAGGAUAUGCUUAUAGACAUGAGGAUCACCCAUGUAAAUGGGACAUGUCAAACCAGCAGAAGGCAGGACCUGGC [Arused] (Eterna round: R96, puzzle: Exclusion NG 2)
- apparent KD of MS2 coat protein (input ligand: FMN 200 uM): 0.069 µM
- apparent KD of MS2 coat protein [2]: 0.585 µM
- apparent KD of MS2 coat protein (input ligand: none): 0.514 µM

Sequence: UUACUAUGUCGCCUAAUAGCUUUUUGCUCGUCUUAUAUUACAUGAGGAUCACCCAUGUAGAUCAUGUGGCGUGACCU [JL ViennaUCT Maridi mod 4] (puzzle: Sensor v3, turn-off variant 2)
- apparent KD of MS2 coat protein [3]: 0.246 µM
- apparent KD of MS2 coat protein [1]: 0.0391 µM
- apparent KD of MS2 coat protein [4]: 0.217 µM

Sequence: AAAUACAAGCAAAGAUCUUACAUGAGGAUCACCCAUGUGUUCGUCUUAUAAAGUACUAUCACGAAAGUGAUAGUACA [Sensor 3, v1 - 32] (puzzle: Sensor v3, turn-off variant 1)
- apparent KD of MS2 coat protein [3]: 0.014 µM
- apparent KD of MS2 coat protein [1]: 0.0897 µM
- apparent KD of MS2 coat protein [4]: 0.0154 µM

Sequence: UACAUGAGGAUCACCCAUGUUUUGUCGUGUAUGGUAUUUAUCUAGGAUAUCAAUGUAUUUAGUUAUGAGAAGGAGAAUAUUAAU [JMF's solution 46] (Eterna round: R96, puzzle: Exclusion NG 3)
- apparent KD of MS2 coat protein (input ligand: FMN 200 uM): 0.0381 µM
- apparent KD of MS2 coat protein [2]: 0.032 µM
- apparent KD of MS2 coat protein (input ligand: none): 0.0353 µM

Sequence: GCAGGCGUCUAGGCUCGUCUUAUUUUGAGAGGAUUGAUAACAUGAGGAUCACCCAUGUUUGUGGGAGAGUUGCAGUG [JR_SV3TOV2_Sub015] (puzzle: Sensor v3, turn-off variant 2)
- apparent KD of MS2 coat protein [3]: 0.121 µM
- apparent KD of MS2 coat protein [1]: 0.241 µM
- apparent KD of MS2 coat protein [4]: 0.143 µM

Sequence: CUCCUGUAAGGAUAUCUGACAAGUGACGAAAGUCACAGUUCAGAGAAGGUACAUGAGGAUCACCCAUGUAGAAC [Exclusion 4 - Mod Brourd Ex 4-3: 41 v.2] (puzzle: Exclusion 4)
- apparent KD of MS2 coat protein [1]: 0.031 µM

Sequence: GCAUUGAGUGUGAGGAUAUGCUGGUCCUAAGAUCAGCAGAAGGCACAUGAGGAUCACCCAUGUGAAAACAAUGC [Mat - Exclusion 4 - JL Mod - D65] (puzzle: Brourd's mod of Exclusion 4)
- apparent KD of MS2 coat protein [3]: 0.102 µM
- apparent KD of MS2 coat protein [1]: 0.0152 µM
- apparent KD of MS2 coat protein [4]: 0.0174 µM

Sequence: GAGGGACAUGAGGAUCACCCAUGUGAGGAUAUGGAGAGGAGGAGGGAGGAGGAGGAGGCCAGAAGGCGCAAGAA [THE BEST I guess] (puzzle: Exclusion 1)
- apparent KD of MS2 coat protein [3]: 0.0226 µM
- apparent KD of MS2 coat protein [1]: 0.028 µM
- apparent KD of MS2 coat protein [4]: 0.046 µM

Sequence: AAGCAACAUGAGGAUCACCCAUGUUAGGAUAUACGCAUGCAUGCAUGCAUGCAUGCAAGUAGAAGGAACCAUGC [Design #15] (Eterna round: R97, puzzle: Exclusion 1)
- apparent KD of MS2 coat protein (input ligand: FMN 200 uM): 0.032 µM
- apparent KD of MS2 coat protein (input ligand: none): 0.049 µM

Sequence: AAGAGUGCAGGAUAUACGUGAGAAAGGAGGAUGAGAGAAGGACAUGAGGAUCACCCAUGUAGAAGGGCAGAGAG [JR_Exclu2_Sub060] (puzzle: Exclusion 2)
- apparent KD of MS2 coat protein [3]: 0.0298 µM
- apparent KD of MS2 coat protein [1]: 0.0364 µM
- apparent KD of MS2 coat protein [4]: 0.0768 µM

Sequence: UUUAAUUUUUUUUUUUUACAAGCUUUUUGCUCGUCUUAUACAUGAGGAUCACCCAUGUAAGUGGGAGGUAAAUUAUC [JMF 76] (puzzle: Sensor v3, turn-off variant 2)
- apparent KD of MS2 coat protein [3]: 0.0543 µM
- apparent KD of MS2 coat protein [1]: 0.201 µM
- apparent KD of MS2 coat protein [4]: 0.102 µM

Sequence: CUGAGGUAGCGGUCCUAUGACAUGAGGAUCACCCAUGUACCUUGCUUUGAGCUAUUUGCUCGUCUUAUGAUUCUCGG [Mat - Sensor v3 - turn-off var 1 - JL Mod - D40] (puzzle: Sensor v3, turn-off variant 1)
- apparent KD of MS2 coat protein [3]: 0.457 µM
- apparent KD of MS2 coat protein [1]: 0.355 µM
- apparent KD of MS2 coat protein [4]: 0.545 µM

Sequence: AGUGCGUAUGUGAGGAUAUGCUGGUCCUUGGCUCGGCAGAAGGCACAUGAGGAUCACCCAUGUGGUGUCGUACU [salish99_Bmod_ex4_066] (puzzle: Brourd's mod of Exclusion 4)
- apparent KD of MS2 coat protein [1]: 0.148 µM

Sequence: AAGAAACAUGAGGAUCACCCAUGUGAGGAUAUGACAAAGAAAAGAAAAGAAAGAAGAUUCAGAAGGCACAAAGG [salish99-ex1_r3_036] (puzzle: Exclusion 1)
- apparent KD of MS2 coat protein [3]: 0.0905 µM
- apparent KD of MS2 coat protein [1]: 0.0536 µM
- apparent KD of MS2 coat protein [4]: 0.0704 µM

Sequence: CGGAUGUGAGGAUAUACAUGAGGAUCACCCAUGUGAGCCAGCUAGAUGACUGGCUCGUGUAGAAGGCACGUCUG [Mat - Exclusion 3 - Mod of JL D92] (puzzle: Exclusion 3)
- apparent KD of MS2 coat protein [1]: 0.0121 µM
